{
  "source": "patent US20220112180",
  "about": "“NOVEL COMPOUNDS AS POTENTIAL THERAPEUTIC AGENTS TARGETING VARIOUS NEURODEGENERATIVE DISEASES” (The Hong Kong University of Science and Technology, published 2022)",
  "binders": {"B1": {"name": "RNA (G4C2)2 G4 (ssRNA)", "RNA": "GGGGCCGGGGCC"}, "B2": {"name": "DNA (G4C2)4 G4 (structured_DNA)", "DNA": "GGGGCCGGGGCCGGGGCCGGGGCC"}},
  "key": {"[1]": {"biological_target": "T1, hnRNP H RRM domain (RRM1/2) (UniProt P31943 P31943:11-188)", "T1 sequence": "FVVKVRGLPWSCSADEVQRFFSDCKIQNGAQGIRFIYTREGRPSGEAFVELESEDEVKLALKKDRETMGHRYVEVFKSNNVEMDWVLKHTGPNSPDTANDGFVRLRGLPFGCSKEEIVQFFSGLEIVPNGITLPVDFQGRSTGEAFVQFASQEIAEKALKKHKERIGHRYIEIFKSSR", "test": "1H-15N HSQC NMR titration at 1:0.5; 20 mM potassium phosphate, 70 mM KCl, pH 7.0, 25 C", "conditions": "tags: His6 cleaved by 3C protease; pET-28a(+), E. coli BL21(DE3); 15N-labelled; G4", "description": "(§1) Titration experiments were performed by recording a series of 2D ¹⁵N-HSQC spectra on uniformly ¹⁵N-labeled RRM domain (˜0.1 mM) in the presence of different amounts of DNA/RNA or compounds at 25° C. Protein samples and stock solutions of DNA/RNA were all prepared in 20 mM potassium phosphate buffer and 70 mM KCl, pH 7.0, 10% D₂O. All compounds were dissolved in isotope-labeled d₆-DMSO (Sigma-Aldrich) at about 50 mM concentration, working as stock solutions. To avoid chemical shift changes of protein samples resulted from d₆-DMSO addition, 10 μL d₆-DMSO was added into 500 μL of 0.1 mM protein solution in the NMR buffer (20 mM potassium phosphate buffer and 70 mM KCl, pH 7.0, 10% D₂O) and then the 2D HSQC was recorded as a reference."}, "[2]": {"biological_target": "T1, hnRNP H RRM domain (RRM1/2)", "test": "1H-15N HSQC NMR titration at 1:0.5, described as potent binding; 20 mM potassium phosphate, 70 mM KCl, pH 7.0, 25 C", "conditions": "tags: His6 cleaved by 3C protease; pET-28a(+), E. coli BL21(DE3); 15N-labelled; G4", "description": "as §1"}},
  "data": [
    {"binder": "B1", "values": [
      {"measurement": "binding result", "setting": "[1]", "result": "binds"}
    ]},
    {"binder": "B2", "values": [
      {"measurement": "binding result", "setting": "[2]", "result": "binds"}
    ]}
  ]
}
